Results on one protein are retold here after ChEMBL document CHEMBL3856203, “β-Lactamases: Why and How” (J Med Chem, 2016).

Substrate in this series: CC(C)(O/N=C(\C(=O)N[C@@H]1C(=O)N2C(C(=O)[O-])=C(C[n+]3ccccc3)CS[C@H]12)c1csc(N)n1)C(=O)O
Kind of series: Substrate activity at Enterobacter cloacae beta lactamase P99 expressed in Escherichia coli AS226-51 cells by UV spectrophotometric method.

B1: Beta-lactamase (Enterobacter cloacae), P05364 (protein)
chain: MMRKSLCCALLLGISCSALATPVSEKQLAEVVANTITPLMKAQSVPGMAVAVIYQGKPHYYTFGKADIAANKPVTPQTLFELGSISKTFTGVLGGDAIARGEISLDDAVTRYWPQLTGKQWQGIRMLDLATYTAGGLPLQVPDEVTDNASLLRFYQNWQPQWKPGTTRLYANASIGLFGALAVKPSGMPYEQAMTTRVLKPLKLDHTWINVPKAEEAHYAWGYRDGKAVRVSPGMLDAQAYGVKTNVQDMANWVMANMAPENVADASLKQGIALAQSRYWRIGSMYQGLGWEMLNWPVEANTVVEGSDSKVALAPLPVAEVNPPAPPVKASWVHKTGSTGGFGSYVAFIPEKQIGIVMLANTSYPNPARVEAAYHILEALQ
As for B1, the kcat was 7 ×10⁻³ /s.
